Test results published in US10654915B2, “Antibodies useful in passive influenza immunization” (priority 2011, dated 2020).
“And” between values parts separate entries of the source, which are not always exact repeats. Equal values may be shown once. Read-outs that look alike come from different tables or passages of the source.

Tests used:
H5N1 [1] = type: cell-based, influenza A
H5N1 A/VN/1204 = type: cell-based, influenza A
A/Ca/04/09 (H1N1) = experiment: In vivo efficacy, treatment at Day 2; set-up: species or system mice; conditions: IP at Day 2, 10 mg/kg (mixture 10 mg/kg each), FIGS. 6A, 6C
[2] = target: H1N1 A/CA/07/09 (H1 Calif/07/09) HA; type: binding, influenza A
[3] = target: HA of clades spanning Group 1; experiment: Standard FortéBio assay (FIG. 3A); type: binding, influenza A; conditions: Group 1, FIG. 3A
H2N2 A/Mallard/MN/2008 = type: cell-based, influenza A
H5N1 [4] = tested on: H5N1; set-up: species or system mice; conditions: mouse, in vivo
H9 HA = type: binding, influenza A; conditions: read-out: affinity
H1N1 [5] = tested on: H1N1; set-up: species or system mice; conditions: mouse, in vivo
[6] = target: H5N1 A/VN/1204 (H5 Vietnam/1203/2004) HA; type: binding, influenza A
HA1 = experiment: Binding to HA1; set-up: species or system influenza A
H1 HA = type: binding, influenza A; conditions: read-out: affinity
[7] = tested on: virus 10 times the LD50 delivered intranasally; experiment: Prophylaxis in mice, potency (EC50); type: in vivo; conditions: single intraperitoneal dose at Day -1, virus at Day 0
H5 HA = type: binding, influenza A; conditions: read-out: affinity
H7N3 = type: cell-based, influenza A
H9N2 = type: cell-based, influenza A
H7 HA = type: binding, influenza A; conditions: read-out: affinity
[8] = tested on: H5N1: A/Vietnam/1203/04/HPAI; set-up: species or system mice; conditions: mouse, in vivo, ip, 10 mg/kg
Philippines 2/82 = tested on: Philippines 2/82; set-up: species or system mice; conditions: mouse, in vivo
H1N1: A/CA/04/09 = tested on: H1N1: A/CA/04/09; set-up: species or system mice; conditions: mouse, in vivo, ip, 10 mg/kg
H9N2 Mallard/MN/98 = type: cell-based, influenza A
H1N1 A/CA/07/09 = experiment: MDCK monolayer microneutralization assay; type: cell-based, influenza A
H1N1 [9] = type: cell-based, influenza A
[10] = tested on: H1N1 Influenza A/Ca/04/09; experiment: Comparison to treatment with Tamiflu in infected mice; type: in vivo

B1: MAB53 (antibody, V domains shown)
VH: QVQLVQSGAEVRKPGSSVKVSCKVSGGIIRKYAINWVRQAPGQGLEWMGGIIAIFNTANYAQKFQGRVTITADESTSTVYMELSSLRSEDTALYYCARGMNYYSDYFDYWGQGSLVTVSP
VL: EIVLTQSPGTLSLSPGERATLSCRASQSVRSNNLAWYQHKPGQAPRLLIFGASSRATGIPDRFSGSGSGTDFTLTISRLEPEDFAVYYCQQYGSSPALTFGGGTKVEIK
modifications: CHAIN (1)...(120) MAB53 heavy chain sequence of variable domain; DOMAIN (31)...(35) CDR1; DOMAIN (50)...(66) CDR2; DOMAIN (99)...(110) CDR3; CHAIN (1)...(109) MAB53 light chain sequence; DOMAIN (24)...(35) CDR1; DOMAIN (51)...(57) CDR2; DOMAIN (90)...(98) CDR3
With B1 the “low doses that neutralized infection” value (H5N1 [1]) was 1 to 5 µg/mL, the “EC50” value (H5N1 A/VN/1204) was 0.10 mg/L and the “Potency Difference” value (H5N1 A/VN/1204) was 40x. The protection / survival (A/Ca/04/09 (H1N1)) was “protective”, the Kd [2] was 0.1 nM and the “affinity across clades (in words)” value [3] was “sub-nM affinity”. For the same molecule, the “EC50” value (H2N2 A/Mallard/MN/2008) was 1.20 mg/L, the survival (H5N1 [4]) was 80% and 60% and 50% and the Kd (H9 HA) was 0.03 nM. The survival (H1N1 [5]) was 90% and 50%, the Kd ([6]; read-out: Affinity by FortéBio) was 0.5 nM and the Kd ([6]; read-out: KD) was 0.5 nM. For the same molecule, the “binding to HA1” value (HA1) was “does not bind HA1”, the Kd (H1 HA) was 0.06 nM and the “EC50 (prophylaxis potency)” value [7] was 0.4 mg/kg. For the same molecule, the Kd (H5 HA) was 6 nM, the “low doses that neutralized infection” value (H7N3) was 1 to 5 µg/mL and the “low doses that neutralized infection” value (H9N2) was 1 to 5 µg/mL. The Kd (H7 HA) was 0.07 nM, the “therapeutic effectiveness (survival)” value [8] was “fully effective” and the protection / survival (Philippines 2/82) was “resulted in death after 10 days”. For the same molecule, the “therapeutic effectiveness (survival)” value (H1N1: A/CA/04/09) was “fully effective”, the “EC50” value (H9N2 Mallard/MN/98) was 0.10 mg/L and the “Potency Difference” value (H1N1 A/CA/07/09; MAB53 vs CR6261 EC50, H1N1 A/CA/07/09) was 30x. For the same molecule, the “EC50” value (H1N1 A/CA/07/09; in vitro neutralization, H1N1 A/CA/07/09) was 0.14 mg/L, the “low doses that neutralized infection” value (H1N1 [9]) was 1 to 5 µg/mL and the survival ([10]; 10 mice per group, treatment from Day +1, to Day 14) was “eight of the ten mice survived past Day 8 to Day 14”. For the same molecule, the “weight relative to original weight (in words)” value ([10]; by Day 14) was “the original weight was exceeded” and the “day at which decline in weight was reversed” value ([10]; treatment from Day +1) was 4 days.
